Changes are numbered by the printed parent chain. In names and notes the source's numbering stands.
B1: Fab VH1-46_IGHD6-6*01_IGHJ1*01 S102A/S103P/S104F/H111F (APFF) & L6_IGKJ1*01 S28N (Fab, V domains shown)
VH: QVQLVQSGAEVKKPGASVKVSCKASGYTFTSYYMHWVRQAPGQGLEWMGIINPSGGSTSYAQKFQGRVTMTRDTSTSTVYMELSSLRSEDTAVYYCAREEYAPFSAEYFQFWGQGTLVTVSS
VL: EIVLTQSPATLSLSPGERATLSCRASQNVSSYLAWYQQKPGQAPRLLIYDASNRATGIPARFSGSGSGTDFTLTISSLEPEDFAVYYCQQRSNWPPWTFGQGTKVEIKR
notes: Fab expressed in E. coli: VH joined to CH1 (Plasmid A, His6 and Flag tags), VL joined to kappa CL (Plasmid C); also called APFF S28N
B2: Fab VH1-46_IGHD6-6*01_IGHJ1*01 S102A/S103P/S104F/H111F G56R & L6_IGKJ1*01 (Fab, V domains shown)
VH: B1 VH with G56R
VL: not shown
notes: Fab from E. coli; CH1 (with His and Flag tags) and kappa CL come from the expression plasmids; also called APFF G56R
B3: Fab VH1-46_IGHD6-6*01_IGHJ1*01 S102A/S103P/S104F/H111F N52Y & L6_IGKJ1*01 (Fab, V domains shown)
VH: B1 VH with N52Y
VL: not shown
notes: Fab from E. coli; CH1 (with His and Flag tags) and kappa CL come from the expression plasmids; also called APFF N52Y
B4: Fab VH1-46_IGHD6-6*01_IGHJ1*01 S102A/S103P/S104F/H111F (APFF) & L6_IGKJ1*01 S28P (Fab, V domains shown)
VH: B1 VH
VL: B1 VL with N28P
notes: Fab expressed in E. coli: VH joined to CH1 (Plasmid A, His6 and Flag tags), VL joined to kappa CL (Plasmid C); also called APFF S28P
B5: Fab VH1-46_IGHD6-6*01_IGHJ1*01 S102A/S103P/S104F/H111F G56I & L6_IGKJ1*01 (Fab, V domains shown)
VH: B1 VH with G56I
VL: not shown
notes: Fab from E. coli; CH1 (with His and Flag tags) and kappa CL come from the expression plasmids; also called APFF G56I
B6: Fab VH1-46_IGHD6-6*01_IGHJ1*01 S102A/S103P/S104F/H111F G56T & L6_IGKJ1*01 (Fab, V domains shown)
VH: B1 VH with G56T
VL: not shown
notes: Fab from E. coli; CH1 (with His and Flag tags) and kappa CL come from the expression plasmids; also called APFF G56T
B7: Fab VH1-46_IGHD6-6*01_IGHJ1*01 S102A/S103P/S104F/H111F (APFF) & L6_IGKJ1*01 S30A (Fab, V domains shown)
VH: B1 VH
VL: B1 VL with N28S, S30A
notes: Fab expressed in E. coli: VH joined to CH1 (Plasmid A, His6 and Flag tags), VL joined to kappa CL (Plasmid C); also called APFF S30A
B8: Fab VH1-46_IGHD6-6*01_IGHJ1*01 S102A/S103P/S104F/H111F (APFF) & L6_IGKJ1*01 S28T (Fab, V domains shown)
VH: B1 VH
VL: B1 VL with N28T
notes: Fab expressed in E. coli: VH joined to CH1 (Plasmid A, His6 and Flag tags), VL joined to kappa CL (Plasmid C); also called APFF S28T
B9: Fab VH1-46_IGHD6-6*01_IGHJ1*01 S102A/S103P/S104F/H111F G56V & L6_IGKJ1*01 (Fab, V domains shown)
VH: B1 VH with G56V
VL: not shown
notes: Fab from E. coli; CH1 (with His and Flag tags) and kappa CL come from the expression plasmids; also called APFF G56V
B10: Fab VH1-46_IGHD6-6*01_IGHJ1*01 S102A/S103P/S104F/H111F (APFF) & L6_IGKJ1*01 S28M (Fab, V domains shown)
VH: B1 VH
VL: B1 VL with N28M
notes: Fab expressed in E. coli: VH joined to CH1 (Plasmid A, His6 and Flag tags), VL joined to kappa CL (Plasmid C); also called APFF S28M
B11: Fab VH1-46_IGHD6-6*01_IGHJ1*01 S102A/S103P/S104F/H111F N52T & L6_IGKJ1*01 (Fab, V domains shown)
VH: B1 VH with N52T
VL: not shown
notes: Fab from E. coli; CH1 (with His and Flag tags) and kappa CL come from the expression plasmids; also called APFF N52T
B12: Fab VH1-46_IGHD6-6*01_IGHJ1*01 S102A/S103P/S104F/H111F N52V & L6_IGKJ1*01 (Fab, V domains shown)
VH: B1 VH with N52V
VL: not shown
notes: Fab from E. coli; CH1 (with His and Flag tags) and kappa CL come from the expression plasmids; also called APFF N52V
B13: Fab VH1-46_IGHD6-6*01_IGHJ1*01 S102A/S103P/S104F/H111F (APFF) & L6_IGKJ1*01 S28L (Fab, V domains shown)
VH: B1 VH
VL: B1 VL with N28L
notes: Fab expressed in E. coli: VH joined to CH1 (Plasmid A, His6 and Flag tags), VL joined to kappa CL (Plasmid C); also called APFF S28L
B14: Fab VH1-46_IGHD6-6*01_IGHJ1*01 S102A/S103P/S104F/H111F (APFF) & L6_IGKJ1*01 S28W (Fab, V domains shown)
VH: B1 VH
VL: B1 VL with N28W
notes: Fab expressed in E. coli: VH joined to CH1 (Plasmid A, His6 and Flag tags), VL joined to kappa CL (Plasmid C); also called APFF S28W
B15: Fab VH1-46_IGHD6-6*01_IGHJ1*01 S102A/S103P/S104F/H111F (APFF) & L6_IGKJ1*01 S28I (Fab, V domains shown)
VH: B1 VH
VL: B1 VL with N28I
notes: Fab expressed in E. coli: VH joined to CH1 (Plasmid A, His6 and Flag tags), VL joined to kappa CL (Plasmid C); also called APFF S28I
B16: Fab VH5-51_IGHD5-18*01>3_IGHJ4*01 G100K/G104T & V3-4_IGLJ1*01 V91L (Fab, V domains shown)
VH: EVQLVQSGAEVKKPGESLKISCKGSGYSFTSYWIGWVRQMPGKGLEWMGIIYPGDSDTRYSPSFQGQVTISADKSISTAYLQWSSLKASDTAMYYCARRKYSYTYDYFDYWGQGTLVTVSS
VL: QTVVTQEPSFSVSPGGTVTLTCGLSSGSVSTSYYPSWYQQTPGQAPRTLIYSTNTRSSGVPDRFSGSILGNKAALTITGAQADDESDYYCLLYMGSGISYVFGTGTKVTVL
notes: Fab; expressed with CH1 (His and Flag tags) and lambda CL from the expression plasmids; also called H:KT & V91L
B17: Fab VH5-51_IGHD5-18*01>3_IGHJ4*01 G100K/G104T & V3-4_IGLJ1*01 V91N (Fab, V domains shown)
VH: B16 VH
VL: B16 VL with L91N
notes: Fab; expressed with CH1 (His and Flag tags) and lambda CL from the expression plasmids; also called H:KT & V91N
B18: Fab VH5-51_IGHD5-18*01>3_IGHJ4*01 G100K/G104T & V3-4_IGLJ1*01 V91T (Fab, V domains shown)
VH: B16 VH
VL: B16 VL with L91T
notes: Fab; expressed with CH1 (His and Flag tags) and lambda CL from the expression plasmids; also called H:KT & V91T
B19: Fab VH5-51_IGHD5-18*01>3_IGHJ4*01 G100K/G104T & V3-4_IGLJ1*01 V91W (Fab, V domains shown)
VH: B16 VH
VL: B16 VL with L91W
notes: Fab; expressed with CH1 (His and Flag tags) and lambda CL from the expression plasmids; also called H:KT & V91W
B20: Fab VH5-51_IGHD5-18*01>3_IGHJ4*01 G100K/G104T & V3-4_IGLJ1*01 V91S (Fab, V domains shown)
VH: B16 VH
VL: B16 VL with L91S
notes: Fab; expressed with CH1 (His and Flag tags) and lambda CL from the expression plasmids; also called H:KT & V91S
B21: Fab VH5-51_IGHD5-18*01>3_IGHJ4*01 G100K/G104T & V3-4_IGLJ1*01 V91R (Fab, V domains shown)
VH: B16 VH
VL: B16 VL with L91R
notes: Fab; expressed with CH1 (His and Flag tags) and lambda CL from the expression plasmids; also called H:KT & V91R

Experiments:
[1] = molecular target: T1, Recombinant Human DLL4 (R&D Systems Cat#1506-D4/CF) (human, UniProt Q9NR61 27-524); test: ECL multispot (MSD) binding assay, DLL4 signal over blank spot; Fab concentration not given
T1 construct: Bought recombinant protein; also called delta-like protein 4; rHuman DLL4

[2] = molecular target: T1, Recombinant Human DLL4 (R&D Systems …); test: ECL multispot (MSD) binding assay, DLL4 spotted on plate, purified Fab in solution; Fab concentration not given
[3] = molecular target: T2, Recombinant Human DLL4 (delta-like protein 4) (human, UniProt Q9NR61 27-524); test: ECL 96-well plate assay on immobilised DLL4, 10 nM Fab
T2 construct: Bought recombinant protein (R&D Systems Cat#1506-D4/CF); also called rHuman DLL4

[4] = molecular target: T2, Recombinant Human DLL4 (delta-like …); test: ELISA on plate-coated DLL4, 100 nM Fab
[5] = molecular target: T3, Recombinant Human DLL4 (delta-like protein 4) (human, UniProt Q9NR61 27-524); test: ELISA, DLL4-coated plate, 100 nM Fab
T3 construct: Bought recombinant human DLL4 (R&D Systems Cat#1506-D4/CF); also called rHuman DLL4

[6] = molecular target: T3, Recombinant Human DLL4 (delta-like …); test: ECL (MSD) binding assay, immobilised DLL4, 10 nM Fab;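 also: fab binding read as electrochemiluminescence via a TAG-labelled detection antibody, 1 h incubations at 20 °C, antigen signal compared with each well's blank, ratio of at least 4 scored as binder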

Binder | Signal/Blank [1] | ECL signal [2] | ECL signal [3] | ELISA signal [4] | further results
B1 | 778 | 204000 | – | – | –
B2 | – | – | 64300 | 0.2 | –
B3 | – | – | 24500 | 0.01 | –
B4 | 454 | 178000 | – | – | –
B5 | – | – | 77000 | 0.23 | –
B6 | – | – | 60700 | 0.2 | –
B7 | 516 | 184000 | – | – | –
B8 | 522 | 159000 | – | – | –
B9 | – | – | 68600 | 0.23 | –
B10 | 336 | 108000 | – | – | –
B11 | – | – | 66800 | 0.61 | –
B12 | – | – | 64700 | 0.24 | –
B13 | 220 | 72300 | – | – | –
B14 | 545 | 165000 | – | – | –
B15 | 309 | 106000 | – | – | –
B16 | – | – | – | – | ELISA Signal [100 nM Fab] [5]: 0.02; ECL Signal [10 nM Fab] [6]: 41600
B17 | – | – | – | – | ELISA Signal [100 nM Fab] [5]: 0; ECL Signal [10 nM Fab] [6]: 46700
B18 | – | – | – | – | ELISA Signal [100 nM Fab] [5]: 0.01; ECL Signal [10 nM Fab] [6]: 32700
B19 | – | – | – | – | ELISA Signal [100 nM Fab] [5]: 0; ECL Signal [10 nM Fab] [6]: 12500
B20 | – | – | – | – | ELISA Signal [100 nM Fab] [5]: 0.01; ECL Signal [10 nM Fab] [6]: 32100
B21 | – | – | – | – | ELISA Signal [100 nM Fab] [5]: 0; ECL Signal [10 nM Fab] [6]: 13400

Reference: US20120316071A1 (published 2012)
